Results as given in article PMC4216633 (Journal of nuclear medicine : official publication, Society …, 2014).

Assays:
thrombus = test: Ex vivo biodistribution in rat model of arterial thrombosis; settings: rat carotid crush thrombosis
[1] = rat, in vivo, iv
[2] = rat, in vivo

Substance	uptake at the target site (thrombus), persisted over 5h (thrombus)	elimination half-life of the intact probe in blood [1] [min]	intact probe in blood at 4h post-injection [2] [%]
FHCHypY(3-Cl)DLCHIL-PXD (disulfide) [FBP8]	0.5–0.8 % ID/g	13.8 ± 3.8	> 85
FHCHypY(3-Cl)DLCHIL-PXD (disulfide) [FBP9]	0.5–0.8 % ID/g	17.9 ± 5.8	> 85
